In patent US20180057593A1 (published 2018):
Positions count from the first letter of the chain named.

B1: Unmasked v4 TDB (bispecific antibody, V domains shown)
VH 1: EVQLVQSGAEVKKPGASVKVSCKASGFTFTSYYIHWVRQAPGQGLEWIGWIYPENDNTKYNEKFKDRVTITADTSTSTAYLELSSLRSEDTAVYYCARDGYSRYYFDYWGQGTLVTVSS
VL 1: DIVMTQSPDSLAVSLGERATINCKSSQSLLNSRTRKNYLAWYQQKPGQSPKLLIYWTSTRKSGVPDRFSGSGSGTDFTLTISSLQAEDVAVYYCKASFILRTFGQGTKVEIK
VH 2: EVQLVESGGGLVQPGGSLRLSCAASGYTFTSYNMHWVRQAPGKGLEWVGAIYPGNGDTSYNQKFKGRFTISVDKSKNTLYLQMNSLRAEDTAVYYCARVVYYSNSYWYFDVWGQGTLVTVSS
VL 2: DIQMTQSPSSLSASVGDRVTITCRASSSVSYMHWYQQKPGKAPKPLIYAPSNLASGVPSRFSGSGSGTDFTLTISSLQPEDFATYYCQQWSFNPPTFGQGTKVEIK
B2: Unmasked v3 TDB (bispecific antibody, V domains shown)
VH 1: B1 VH 1
VL 1: B1 VL 1 with A96Q, I99A
VH 2: B1 VH 2
VL 2: B1 VL 2
B3: Unmasked v1 TDB (bispecific antibody, V domains shown)
VH 1: B1 VH 1
VL 1: B1 VL 1 with A96Q
VH 2: B1 VH 2
VL 2: B1 VL 2
B4: Unmasked v5 TDB (bispecific antibody, V domains shown)
VH 1: B1 VH 1
VL 1: B1 VL 1 with A96Q, F98A
VH 2: B1 VH 2
VL 2: B1 VL 2

Target: T1, single chain CD3εγ heterodimer (UniProt P07766 23-118; P09693 23-103)
T1 chain: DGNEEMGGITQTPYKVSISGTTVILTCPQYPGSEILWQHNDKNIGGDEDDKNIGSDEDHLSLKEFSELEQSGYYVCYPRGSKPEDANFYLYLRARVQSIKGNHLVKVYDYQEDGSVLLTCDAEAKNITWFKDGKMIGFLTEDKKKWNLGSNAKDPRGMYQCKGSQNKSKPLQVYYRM
Experiment: Biacore

First: B1
Second: B2
The Kd of the first is 34-fold higher: 119 nM for the first, 3.5 nM for the second. The second binds more tightly here.

First: B3
Second: B4
The Kd of the first is 15-fold lower: 1.2 nM for the first, 18 nM for the second. The first binds more tightly here.

Target: T1, single chain CD3εγ heterodimer
Experiment: Biacore
Remark: another data set of the same source

Going from B1 to B2, the Kd falls from 119 nM to 3.5 nM (34-fold).

First: B3
Second: B4
The Kd of the first is 15-fold lower: 1.2 nM for the first, 18 nM for the second.
